Legend:
[1] = biological target: HLA class II antigens (HLA-DR, HLA-DQ and HLA-DP); test: Luminex dose/response, mean over 5 class II bead types; SD 298.79
[2] = biological target: HLA class II antigens (HLA-DR, HLA-DQ and HLA-DP); test: Boltzmann sigmoid fit of the Luminex titration curve, lower asymptote
[3] = biological target: HLA class II antigens (HLA-DR, HLA-DQ and HLA-DP); test: Boltzmann sigmoid fit of the Luminex titration curve, upper asymptote
[4] = biological target: HLA class II antigens (HLA-DR, HLA-DQ and HLA-DP); test: Luminex dose/response, mean over 5 class II bead types, antibody 2 × 10^0 µg/ml; SD 167
[5] = biological target: HLA class II antigens (HLA-DR, HLA-DQ and HLA-DP); test: Luminex titration on Labscreen Mixed class II beads; concentration at 50% of (MAX - MIN)
[6] = biological target: HLA class II antigens (HLA-DR, HLA-DQ and HLA-DP); test: Luminex dose/response, mean over 5 class II bead types, antibody 5 × 10^-4 µg/ml; SD 29.6
[7] = biological target: HLA class II antigens (HLA-DR, HLA-DQ and HLA-DP); test: Luminex dose/response, mean over 5 class II bead types, antibody 2 × 10^-3 µg/ml; SD 72.15
[8] = biological target: HLA class II antigens (HLA-DR, HLA-DQ and HLA-DP); test: Luminex dose/response, mean over 5 class II bead types, antibody 5 × 10^-1 µg/ml; SD 160.45
[9] = biological target: HLA class II antigens (HLA-DR, HLA-DQ and HLA-DP); test: Luminex, each Labscreen Mixed class II bead type, antibody at 2 µg/ml; SD approximately 700
[10] = biological target: HLA class II antigens (HLA-DR, HLA-DQ and HLA-DP); test: Luminex dose/response, mean over 5 class II bead types, antibody 7.8 × 10^-3 µg/ml; SD 145.09
[11] = biological target: HLA class II antigens (HLA-DR, HLA-DQ and HLA-DP); test: Luminex dose/response, mean over 5 class II bead types, antibody 3.13 × 10^-2 µg/ml; SD 273.56

Average (fluorescence intensity) (fluorescence units) [1]: 18000
MIN (fluorescence units) [2]: 88
MAX (fluorescence units) [3]: 24600
Average (fluorescence intensity) (fluorescence units) [4]: 23600
EC50 [5]: 0.05 µg/mL
Average (fluorescence intensity) (fluorescence units) [6]: 316
Average (fluorescence intensity) (fluorescence units) [7]: 1090
Average (fluorescence intensity) (fluorescence units) [8]: 22800
fluorescence (average fluorescence units) [9]: 22000
Average (fluorescence intensity) (fluorescence units) [10]: 3520
Average (fluorescence intensity) (fluorescence units) [11]: 9130
B1: monoclonal chimeric immunoglobulin Hu-IgG1 K [F3.3] (antibody, V domains shown)
VH: EVKLEESGGGLVQPGGSMKLSCVASGFTFSNSWMNWVRQSPEKGLEWVAEIRLKSNNYATRYAESVKGRFTISRDDSKSSVYLQMNNLRSEDTAIYYCTPLSYSFDYWGQGTTVTVST
VL: QIVLTQSPAIMSASPGEKVTMTCSASSIVRYMYWFQQKPGSSPRLLIYDTSSLSSGVPVRFSGSGSGTSYSLTISRMEAEDAATYFCQQWSSYPLTFGGGTKLEIKR

From patent US10705076
